Values of other authors as cited in paper PMC5310643.
pKd: −log10 of the molar value.

Molecular target: κI light chain variable domain (germline) VL (Homo sapiens) (UniProt P01594)
Assay: NMR diffusion

- pKd: 3.66
Substance: κI light chain variable domain (germline) VL (from UniProt P01594)
